Data reported in PMC10040874.

Experiments:
[1] = molecular target: Drosophila melanogaster CNNM CBS-pair domain, GST-tagged (D. melanogaster); experiment: ITC; VP-ITC, 20 °C, 20 mM Hepes pH 7.5, 100 mM NaCl, 5 mM TCEP; GST-CBS-pairs titrated with PRL; single site-binding model
[2] = molecular target: Naegleria fowleri CNNM CBS-pair domain (N. fowleri); experiment: ITC; details: enzyme

Chain of Drosophila melanogaster CNNM CBS-pair domain, GST-tagged (D. melanogaster) (A0A0B7P9G0 362-515): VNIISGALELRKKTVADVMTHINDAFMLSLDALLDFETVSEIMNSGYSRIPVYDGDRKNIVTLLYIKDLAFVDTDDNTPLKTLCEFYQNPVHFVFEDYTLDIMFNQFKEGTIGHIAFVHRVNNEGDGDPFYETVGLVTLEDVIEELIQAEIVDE

Row | fold decrease of affinity against wild type [1] | Substance | Ka [2] | Kd [2]
1 | < 2 fold | Drosophila melanogaster PRL C109D (from UniProt O61722 1-176) | – | –
2 | 20 fold | Drosophila melanogaster PRL R143E (from UniProt O61722 1-176) (enzyme) | – | –
3 | – | Naegleria fowleri PRL | 688000 M⁻¹ | 1500 nM
